Data from patent US20160272683A1 (Novo Nordisk, published 2016).
Numbered stars: 1 amine (or outer) side, 2 acyl side, 3 side chain; on linkers, the order of the positions; unused ones are H or OH. * marks the point of attachment. C20 diacid = O=C(O)CCCCCCCCCCCCCCCCCCC(=O)*; C18 diacid = O=C(O)CCCCCCCCCCCCCCCCC(=O)*; γGlu = O=C(O)[C@H](CCC(=O)[*:2])N[*:1]; AEEA = NCCOCCOCC(=O)O

T1: human amylin receptor (human calcitonin receptor + human RAMP3) (human) (UniProt P30988)
T1 sequence (looked up) 1: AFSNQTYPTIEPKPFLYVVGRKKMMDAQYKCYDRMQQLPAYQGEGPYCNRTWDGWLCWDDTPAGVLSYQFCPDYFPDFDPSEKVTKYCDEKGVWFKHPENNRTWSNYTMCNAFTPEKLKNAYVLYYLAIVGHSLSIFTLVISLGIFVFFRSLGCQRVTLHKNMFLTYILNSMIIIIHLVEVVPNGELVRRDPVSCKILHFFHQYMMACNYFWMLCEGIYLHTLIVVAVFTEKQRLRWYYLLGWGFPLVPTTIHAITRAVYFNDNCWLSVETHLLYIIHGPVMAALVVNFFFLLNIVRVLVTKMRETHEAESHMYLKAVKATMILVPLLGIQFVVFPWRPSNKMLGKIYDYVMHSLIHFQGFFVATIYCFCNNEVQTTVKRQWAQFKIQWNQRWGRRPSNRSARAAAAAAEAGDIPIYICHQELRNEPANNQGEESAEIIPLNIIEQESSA
T1 sequence (looked up) 2: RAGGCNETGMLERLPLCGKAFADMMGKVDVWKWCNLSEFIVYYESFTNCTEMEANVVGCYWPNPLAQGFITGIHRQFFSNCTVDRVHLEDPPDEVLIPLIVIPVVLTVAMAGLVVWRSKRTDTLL


Biological target: T1, human amylin receptor (human calcitonin receptor + human RAMP3) (human)
Assay: whole-cell competition vs 125I-rat amylin (Assay Va)

| Binder | IC50 |
| --- | --- |
| {C20 diacid-γGlu}-ASELSTAALGRLSAELHELATLPRTETGSGSG-NH2 (SMILES CC(C)C[C@H](NC(=O)[C@H](C)NC(=O)[C@H](C)NC(=O)[C@@H](NC(=O)[C@H](CO)NC(=O)[C@H](CC(C)C)NC(=O)[C@H](CCC(=O)O)NC(=O)[C@H](CO)NC(=O)[C@H](C)NC(=O)CC[C@H](NC(=O)CCCCCCCCCCCCCCCCCCC(=O)O)C(=O)O)[C@@H](C)O)C(=O)NCC(=O)N[C@@H](CCCNC(=N)N)C(=O)N[C@@H](CC(C)C)C(=O)N[C@@H](CO)C(=O)N[C@@H](C)C(=O)N[C@@H](CCC(=O)O)C(=O)N[C@@H](CC(C)C)C(=O)N[C@@H](Cc1c[nH]cn1)C(=O)N[C@@H](CCC(=O)O)C(=O)N[C@@H](CC(C)C)C(=O)N[C@@H](C)C(=O)N[C@H](C(=O)N[C@@H](CC(C)C)C(=O)N1CCC[C@H]1C(=O)N[C@@H](CCCNC(=N)N)C(=O)N[C@H](C(=O)N[C@@H](CCC(=O)O)C(=O)N[C@H](C(=O)NCC(=O)N[C@@H](CO)C(=O)NCC(=O)N[C@@H](CO)C(=O)NCC(N)=O)[C@@H](C)O)[C@@H](C)O)[C@@H](C)O) [[N-terminal(C20 diacid-gGlu), des1, 30S, 31G, 33G]mimylin] | 4.36 nM |
| {C20 diacid-γGlu}-ASELSTAALGRLSAELHELATLPHTETGSGSP-NH2 (SMILES CC(C)C[C@H](NC(=O)[C@H](C)NC(=O)[C@H](C)NC(=O)[C@@H](NC(=O)[C@H](CO)NC(=O)[C@H](CC(C)C)NC(=O)[C@H](CCC(=O)O)NC(=O)[C@H](CO)NC(=O)[C@H](C)NC(=O)CC[C@H](NC(=O)CCCCCCCCCCCCCCCCCCC(=O)O)C(=O)O)[C@@H](C)O)C(=O)NCC(=O)N[C@@H](CCCNC(=N)N)C(=O)N[C@@H](CC(C)C)C(=O)N[C@@H](CO)C(=O)N[C@@H](C)C(=O)N[C@@H](CCC(=O)O)C(=O)N[C@@H](CC(C)C)C(=O)N[C@@H](Cc1c[nH]cn1)C(=O)N[C@@H](CCC(=O)O)C(=O)N[C@@H](CC(C)C)C(=O)N[C@@H](C)C(=O)N[C@H](C(=O)N[C@@H](CC(C)C)C(=O)N1CCC[C@H]1C(=O)N[C@@H](Cc1c[nH]cn1)C(=O)N[C@H](C(=O)N[C@@H](CCC(=O)O)C(=O)N[C@H](C(=O)NCC(=O)N[C@@H](CO)C(=O)NCC(=O)N[C@@H](CO)C(=O)N1CCC[C@H]1C(N)=O)[C@@H](C)O)[C@@H](C)O)[C@@H](C)O) [[N-terminal(C20 diacid-gGlu), des1, 25H, 30S, 31G]mimylin] | 0.608 nM |
| {C20 diacid-γGlu}-ASELSTAALGRLSAELHELATLPRTETGSGSS-NH2 (SMILES CC(C)C[C@H](NC(=O)[C@H](C)NC(=O)[C@H](C)NC(=O)[C@@H](NC(=O)[C@H](CO)NC(=O)[C@H](CC(C)C)NC(=O)[C@H](CCC(=O)O)NC(=O)[C@H](CO)NC(=O)[C@H](C)NC(=O)CC[C@H](NC(=O)CCCCCCCCCCCCCCCCCCC(=O)O)C(=O)O)[C@@H](C)O)C(=O)NCC(=O)N[C@@H](CCCNC(=N)N)C(=O)N[C@@H](CC(C)C)C(=O)N[C@@H](CO)C(=O)N[C@@H](C)C(=O)N[C@@H](CCC(=O)O)C(=O)N[C@@H](CC(C)C)C(=O)N[C@@H](Cc1c[nH]cn1)C(=O)N[C@@H](CCC(=O)O)C(=O)N[C@@H](CC(C)C)C(=O)N[C@@H](C)C(=O)N[C@H](C(=O)N[C@@H](CC(C)C)C(=O)N1CCC[C@H]1C(=O)N[C@@H](CCCNC(=N)N)C(=O)N[C@H](C(=O)N[C@@H](CCC(=O)O)C(=O)N[C@H](C(=O)NCC(=O)N[C@@H](CO)C(=O)NCC(=O)N[C@@H](CO)C(=O)N[C@@H](CO)C(N)=O)[C@@H](C)O)[C@@H](C)O)[C@@H](C)O) [[N-terminal(C20 diacid-gGlu), des1, 30S, 31G, 33S]mimylin] | 4.07 nM |
| {C20 diacid-γGlu}-ASELSTAALGRLSAELHELATLPRTETGSGSF-NH2 (SMILES CC(C)C[C@H](NC(=O)[C@H](C)NC(=O)[C@H](C)NC(=O)[C@@H](NC(=O)[C@H](CO)NC(=O)[C@H](CC(C)C)NC(=O)[C@H](CCC(=O)O)NC(=O)[C@H](CO)NC(=O)[C@H](C)NC(=O)CC[C@H](NC(=O)CCCCCCCCCCCCCCCCCCC(=O)O)C(=O)O)[C@@H](C)O)C(=O)NCC(=O)N[C@@H](CCCNC(=N)N)C(=O)N[C@@H](CC(C)C)C(=O)N[C@@H](CO)C(=O)N[C@@H](C)C(=O)N[C@@H](CCC(=O)O)C(=O)N[C@@H](CC(C)C)C(=O)N[C@@H](Cc1c[nH]cn1)C(=O)N[C@@H](CCC(=O)O)C(=O)N[C@@H](CC(C)C)C(=O)N[C@@H](C)C(=O)N[C@H](C(=O)N[C@@H](CC(C)C)C(=O)N1CCC[C@H]1C(=O)N[C@@H](CCCNC(=N)N)C(=O)N[C@H](C(=O)N[C@@H](CCC(=O)O)C(=O)N[C@H](C(=O)NCC(=O)N[C@@H](CO)C(=O)NCC(=O)N[C@@H](CO)C(=O)N[C@@H](Cc1ccccc1)C(N)=O)[C@@H](C)O)[C@@H](C)O)[C@@H](C)O) [[N-terminal(C20 diacid-gGlu), des1, 30S, 31G, 33F]mimylin] | 1.36 nM |
| {C20 diacid-γGlu}-ASELSTAALGRLSAELHELATLPRTETGSGSL-NH2 (SMILES CC(C)C[C@H](NC(=O)[C@H](CO)NC(=O)CNC(=O)[C@H](CO)NC(=O)CNC(=O)[C@@H](NC(=O)[C@H](CCC(=O)O)NC(=O)[C@@H](NC(=O)[C@H](CCCNC(=N)N)NC(=O)[C@@H]1CCCN1C(=O)[C@H](CC(C)C)NC(=O)[C@@H](NC(=O)[C@H](C)NC(=O)[C@H](CC(C)C)NC(=O)[C@H](CCC(=O)O)NC(=O)[C@H](Cc1c[nH]cn1)NC(=O)[C@H](CC(C)C)NC(=O)[C@H](CCC(=O)O)NC(=O)[C@H](C)NC(=O)[C@H](CO)NC(=O)[C@H](CC(C)C)NC(=O)[C@H](CCCNC(=N)N)NC(=O)CNC(=O)[C@H](CC(C)C)NC(=O)[C@H](C)NC(=O)[C@H](C)NC(=O)[C@@H](NC(=O)[C@H](CO)NC(=O)[C@H](CC(C)C)NC(=O)[C@H](CCC(=O)O)NC(=O)[C@H](CO)NC(=O)[C@H](C)NC(=O)CC[C@H](NC(=O)CCCCCCCCCCCCCCCCCCC(=O)O)C(=O)O)[C@@H](C)O)[C@@H](C)O)[C@@H](C)O)[C@@H](C)O)C(N)=O) [[N-terminal(C20 diacid-gGlu), des1, 30S, 31G, 33L]mimylin] | 3.05 nM |

The next lines start with the values.

| IC50 | Binder |
| --- | --- |
| 1.89 nM | {C20 diacid-γGlu}-ASELSTAALGRLSAELHELATLPRTETGSGSA-NH2 (SMILES CC(C)C[C@H](NC(=O)[C@H](C)NC(=O)[C@H](C)NC(=O)[C@@H](NC(=O)[C@H](CO)NC(=O)[C@H](CC(C)C)NC(=O)[C@H](CCC(=O)O)NC(=O)[C@H](CO)NC(=O)[C@H](C)NC(=O)CC[C@H](NC(=O)CCCCCCCCCCCCCCCCCCC(=O)O)C(=O)O)[C@@H](C)O)C(=O)NCC(=O)N[C@@H](CCCNC(=N)N)C(=O)N[C@@H](CC(C)C)C(=O)N[C@@H](CO)C(=O)N[C@@H](C)C(=O)N[C@@H](CCC(=O)O)C(=O)N[C@@H](CC(C)C)C(=O)N[C@@H](Cc1c[nH]cn1)C(=O)N[C@@H](CCC(=O)O)C(=O)N[C@@H](CC(C)C)C(=O)N[C@@H](C)C(=O)N[C@H](C(=O)N[C@@H](CC(C)C)C(=O)N1CCC[C@H]1C(=O)N[C@@H](CCCNC(=N)N)C(=O)N[C@H](C(=O)N[C@@H](CCC(=O)O)C(=O)N[C@H](C(=O)NCC(=O)N[C@@H](CO)C(=O)NCC(=O)N[C@@H](CO)C(=O)N[C@@H](C)C(N)=O)[C@@H](C)O)[C@@H](C)O)[C@@H](C)O) [[N-terminal(C20 diacid-gGlu), des1, 30S, 31G, 33A]mimylin] |
| 1.59 nM | {C20 diacid-γGlu}-EASELSTAALGRLSAELHELATYPRTETGSGSP-NH2 (SMILES CC(C)C[C@H](NC(=O)[C@H](C)NC(=O)[C@H](C)NC(=O)[C@@H](NC(=O)[C@H](CO)NC(=O)[C@H](CC(C)C)NC(=O)[C@H](CCC(=O)O)NC(=O)[C@H](CO)NC(=O)[C@H](C)NC(=O)[C@H](CCC(=O)O)NC(=O)CC[C@H](NC(=O)CCCCCCCCCCCCCCCCCCC(=O)O)C(=O)O)[C@@H](C)O)C(=O)NCC(=O)N[C@@H](CCCNC(=N)N)C(=O)N[C@@H](CC(C)C)C(=O)N[C@@H](CO)C(=O)N[C@@H](C)C(=O)N[C@@H](CCC(=O)O)C(=O)N[C@@H](CC(C)C)C(=O)N[C@@H](Cc1c[nH]cn1)C(=O)N[C@@H](CCC(=O)O)C(=O)N[C@@H](CC(C)C)C(=O)N[C@@H](C)C(=O)N[C@H](C(=O)N[C@@H](Cc1ccc(O)cc1)C(=O)N1CCC[C@H]1C(=O)N[C@@H](CCCNC(=N)N)C(=O)N[C@H](C(=O)N[C@@H](CCC(=O)O)C(=O)N[C@H](C(=O)NCC(=O)N[C@@H](CO)C(=O)NCC(=O)N[C@@H](CO)C(=O)N1CCC[C@H]1C(N)=O)[C@@H](C)O)[C@@H](C)O)[C@@H](C)O) [[N-terminal(C20 diacid-gGlu), 23Y, 30S, 31G]mimylin] |
| 0.745 nM | {C18 diacid}-EASELSTAVLGRLSAELAELATLPRTETGPESP-NH2 (SMILES CC(C)C[C@H](NC(=O)[C@H](CCC(=O)O)NC(=O)[C@H](C)NC(=O)[C@H](CO)NC(=O)[C@H](CC(C)C)NC(=O)[C@H](CCCNC(=N)N)NC(=O)CNC(=O)[C@H](CC(C)C)NC(=O)[C@@H](NC(=O)[C@H](C)NC(=O)[C@@H](NC(=O)[C@H](CO)NC(=O)[C@H](CC(C)C)NC(=O)[C@H](CCC(=O)O)NC(=O)[C@H](CO)NC(=O)[C@H](C)NC(=O)[C@H](CCC(=O)O)NC(=O)CCCCCCCCCCCCCCCCC(=O)O)[C@@H](C)O)C(C)C)C(=O)N[C@@H](C)C(=O)N[C@@H](CCC(=O)O)C(=O)N[C@@H](CC(C)C)C(=O)N[C@@H](C)C(=O)N[C@H](C(=O)N[C@@H](CC(C)C)C(=O)N1CCC[C@H]1C(=O)N[C@@H](CCCNC(=N)N)C(=O)N[C@H](C(=O)N[C@@H](CCC(=O)O)C(=O)N[C@H](C(=O)NCC(=O)N1CCC[C@H]1C(=O)N[C@@H](CCC(=O)O)C(=O)N[C@@H](CO)C(=O)N1CCC[C@H]1C(N)=O)[C@@H](C)O)[C@@H](C)O)[C@@H](C)O) [[N-terminal(C18 diacid), 9V, 18A]mimylin] |
| 0.432 nM | {C20 diacid-γGlu-AEEA-AEEA-AEEA}-ASELSTAALGRLSAELHELATLPRTETGSGSP-NH2 [[N-terminal(C20 diacid-gGlu-3xOEG), des1, 30S, 31G]mimylin] |
